Biological target: CD33 on HL60 leukemia cells (human) (UniProt P20138)
Experiment: cell-based or functional assay

Chain of CD33 on HL60 leukemia cells (human) (P20138 18-364 limits assumed): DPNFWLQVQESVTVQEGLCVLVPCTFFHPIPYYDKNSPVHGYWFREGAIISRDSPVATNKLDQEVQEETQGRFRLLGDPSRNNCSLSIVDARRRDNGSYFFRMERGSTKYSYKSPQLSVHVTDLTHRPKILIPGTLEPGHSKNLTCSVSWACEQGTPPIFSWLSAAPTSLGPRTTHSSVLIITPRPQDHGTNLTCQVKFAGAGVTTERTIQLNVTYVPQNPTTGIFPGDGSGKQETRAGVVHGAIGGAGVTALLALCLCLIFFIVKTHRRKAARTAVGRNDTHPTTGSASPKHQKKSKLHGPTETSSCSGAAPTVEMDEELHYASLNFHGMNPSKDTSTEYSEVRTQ

For “Lintuzumab conjugated with Actinium-225 (antibody)”, the LD50 (dose at which 50% of the cells were killed), HL60 cell suspension was 8 pCi/mL.

From patent US20200283539A1
